Reference: patent publication US20250304711A1, “Methods and Compositions for Treating Obesity, Obesity-Related Diseases, Fatty Liver and Fatty Liver Associated Diseases with Anti-CD24 Agents” (The Board of Trustees of the Leland Stanford Junior …, priority 2022, published 2025)

B1: MOSW3: SWA11 mouse IgG2a, C1q and Fc silenced (L234A, L235A, K320A, K322A, P329G); SEQ ID NO: 17 and 34 (antibody)
heavy: DVQLQESGPDLVKPSQSLSLTCTVTGYSITSGYTWHWIRQFPGNTVEWMGYIQYTGSTRYNPALRGRLSISRDTSKNQFFLQLISVTTADTGTYFCARGTTASFDYWGQGTTLTVASAKTTAPSVYPLAPVCGDTTGSSVTLGCLVKGYFPEPVTLTWNSGSLSSGVHTFPAVLQSDLYTLSSSVTVTSSTWPSQSITCNVAHPASSTKVDKKIEPRGPTIKPCPPCKCPAPNAAGGPSVFIFPPKIKDVLMISLSPIVTCVVVDVSEDDPDVQISWFVNNVEVHTAQTQTHREDYNSTLRVVSALPIQHQDWMSGKEFACAVNNKDLGAPIERTISKPKGSVRAPQVYVLPPPEEEMTKKQVTLTCMVTDFMPEDIYVEWTNNGKTELNYKNTEPVLDSDGSYFMYSKLRVEKKNWVERNSYSCSVVHEGLHNHHTTKSFSRTPGK
light: DIVMSQSPSSLNVSVGEKVTMRCRSSQSLLYSSDQKNYLTWYQQKPGQSPKLLISWASTRASGVPDRFTGSGSGTDFTLTISSVKAEDLGVYYCQQYFIYPLTFGVGTKLGLKRADAAPTVSIFPPSSEQLTSGGASVVCFLNNFYPKDINVKWKIDGSERQNGVLNSWTDQDSKDSTYSMSSTLTLTKDEYERHNSYTCEATHKTSTSPIVKSFNRNEC

Assays:
Huh7D cells = test: Steatosis in Huh7D cells cultured in fatty medium, Nile Red stain; format: cell-based; conditions: Huh7D cells 4 days in fatty medium, then treated 3 days in fatty medium; Nile Red fluorescence; agents at 1 μg/mL unless otherwise specified
Method: FIG. 1A-1D: Relative lipid accumulation of Huh 7D cells when cultured on fatty medium and treated with various anti-CD24 agents. Agents were added at 1 μg/mL unless otherwise specified as in the Fab. MOSW1, SWA11, ML5, SN3: mouse anti human CD24 antibodies; MOSW2: SWA11 antibody with point mutations to silent complement activity; MOSW3: SWA11 antibody with point mutations to silent complement activity, antibody-dependent cytotoxicity (ADCC) and antibody-dependent cellular phagocytosis (ADCP); Fab: Fab of SWA11 antibody, G7s: scFv against human and mouse CD24; TW2, TW6, V2, V3, V4, V6, V7, V8, V9, V10, V14, V15, V16: different humanized anti-CD24 antibodies; hIgG: human IgG isotype control. FIG. 1A: anti-steatosis activity of SWA-11, Fab, TW2, TW6 and G7S; FIG. 1B: anti-steatosis activity of V2, V3, V4, V6, V7, V8, V9, V10, V14, V15, V16; FIG. 1C: anti-steatosis of SWA11, Fab, ML5, SN3, MOSW1, MOSW2, MOSW3; FIG. 1D: anti-steatosis of 3 small molecules that bind CD24.
Specifically, Huh7 cells, which are liver hepatoma cells, were cultured in 1% DMSO (Huh7D cells) and then supplemented with fatty medium to induce steatosis. […] To determine the degree of steatosis, cells were stained with 1 mg/ml Nile Red solution (Sigma Aldrich) in cell culture medium for 15 mins at 37° C. and florescence signal was measured.

[1] = test system: NSG mice with humanized livers; test: NSG mice with humanized livers on HFD: graft survival, human albumin, CT; format: in vivo, mouse
Method: In order to determine the effect of anti-CD24 agent in a more physiologic model of human fatty liver disease, we used a mouse model in which human liver can be engrafted. Briefly, NSG mice with humanized livers were prepared using the RAAPID-TKG method. These mice contain chimeric livers that harbor both murine and human hepatocytes and the degree of human liver engraftment can be ascertained by measuring serum human albumin. 2 mice with similar degrees of human liver engraftment, as measured by baseline serum human albumin, were placed on HFD for 6 weeks and then treated with either IgG control or an anti-CD24 antibody—which we term MOSW3—whose Fc has been engineered to contain point mutations that abrogate ADCC, ADCP, as well as compliment binding activity, i.e., Fc-silent antibody. Antibodies were dosed at 25 μg twice a week.

Row | Molecule | anti-steatosis efficacy (relative lipid accumulation) (Huh7D cells) | steatosis on liver CT scan ([1]; 3 weeks post treatment, IgG treated mouse vs MOSW3 treated mouse) | human liver graft survival ([1]; HFD 6 weeks, then 25 μg twice a week, vs IgG control) | serum human albumin ([1]; humanized-liver NSG mice, HFD 6 weeks, then 25 μg twice a week, weekly serum for 3 weeks, vs IgG control)
1 | O=C(O)c1ccccc1C(=O)c1cn(-c2ccc(F)cc2)[n+]([O-])n1 [A] | anti-steatosis efficacy | – | – | –
2 | Cc1cccc(-n2nc([N+](=O)[O-])c(NCc3ccc(F)cc3)[n+]2[O-])c1 [B] | anti-steatosis efficacy | – | – | –
3 | B1 | – | The IgG treated mouse showed higher level of steatosis (FIG. 9B) compared to the MOSW3 treated mouse | longer graft survival | maintenance of serum human albumin
